Holding throughout (experiment): cell_activity
For data set [1], the system named is ProCre-LRGAG (cyclized sCre with AVP site) (Escherichia phage P1?). Conditions: 293T; without AVP 4.5±0.6%; with AVP 40±1%; FLEx module with mCherry removed.
In data set [2] the test system is ProCreHRV (cyclized sCre with LEVLFQGP site) (Escherichia phage P1?). The conditions noted are these: 293T; without HRV 3C protease 5±1%; with HRVp 49±4%; FLEx.2 module.
Data set [3] deals with cysCreTEV (cyclized sCre with ENLYFQS site) (Escherichia phage P1?). Conditions: 293T; uncleaved (mock); with TEVp GFP MFI similar to non-cyclized sCre.
In data set [4] the test system is sCre (truncated Cre, residues 19-343) (Escherichia phage P1?). Conditions: 293T; by GFP MFI; similar % GFP+ cells as full-length.

On to “FLEx DiO cassette with loxP and lox2272 pairs”, for which the activity in data set [1] was found to be 4.5 % GFP+ cells; in data set [2] it was 5 % GFP+ cells; in data set [3] it was 3.2 % GFP+ cells. The Cre recombination activity (GFP reporter MFI) (% of full-length Cre) in data set [4] was 77.

The record behind these values is patent publication US20260002137.
